Test results: US20130058955A1 (Genentech, published 2013)
Residue numbers refer to the chain shown, from its start. Names may count otherwise. “And” between values parts separate entries of the source, which are not always exact repeats. Identical values can stand only once.

B1: 3F5, Fab displayed on phage (Fab, V domains shown)
VH: EVQLVESGGGLVQPGGSLRLSCAASGFTFSNTYISWVRQAPGKGLEWVASITPSSGQTDYADSVKGRFTISADTSKNTAYLQMNSLRAEDTAVYYCARTWLLRWVMDYWGQGTLVTVSS
VL: DIQMTQSPSSLSASVGDRVTITCRASQDVSTAVAWYQQKPGKAPKLLIYSASFLYSGVPSRFSGSGSGTDFTLTISSLQPEDFATYYCQQSYTTPPTFGQGTKVEIK
notes: Monovalent Fab on M13 phage
B2: 4G7, Fab displayed on phage (Fab, name in Kabat numbering, V domains shown)
VH: B1 VH with Q57S, Y108G
VL: B1 VL
notes: Heavy chain mutant of 1E3 (H3); Monovalent Fab on M13 phage
B3: 1F11, Fab displayed on phage (Fab, V domains shown)
VH: B1 VH with Q57S
VL: B1 VL with S52K
notes: Monovalent Fab on M13 phage
B4: 2H5, Fab displayed on phage (Fab, name in Kabat numbering, V domains shown)
VH: B1 VH with Q57S
VL: B1 VL with T94N
notes: Light chain mutant of 1E3 (CDR L3); Monovalent Fab on M13 phage
B5: 3E4, Fab displayed on phage (Fab, name in Kabat numbering, V domains shown)
VH: B1 VH with I34M, Q57S
VL: B1 VL
notes: Heavy chain mutant of 1E3 (CDR H1); Monovalent Fab on M13 phage
B6: 2C11/4G7 double mutant, Fab displayed on phage (Fab, name in Kabat numbering, V domains shown)
VH: B1 VH with Q57S, Y108G
VL: B1 VL with T94Q
B7: 2C11, Fab displayed on phage (Fab, name in Kabat numbering, V domains shown)
VH: B1 VH with Q57S
VL: B1 VL with T94Q
notes: as for B4
B8: 2H5/3E4 double mutant, Fab displayed on phage (Fab, name in Kabat numbering, V domains shown)
VH: B1 VH with I34M, Q57S
VL: B1 VL with T94N
B9: 1F11/4G7 double mutant, Fab displayed on phage (Fab, name in Kabat numbering, V domains shown)
VH: B1 VH with Q57S, Y108G
VL: B1 VL with S52K
B10: 2H5/4G7 double mutant, Fab displayed on phage (Fab, name in Kabat numbering, V domains shown)
VH: B1 VH with Q57S, Y108G
VL: B1 VL with T94N
B11: 2C11/3E4 double mutant, Fab displayed on phage (Fab, name in Kabat numbering, V domains shown)
VH: B1 VH with I34M, Q57S
VL: B1 VL with T94Q
B12: 1F11/3E4 double mutant, Fab displayed on phage (Fab, name in Kabat numbering, V domains shown)
VH: B1 VH with I34M, Q57S
VL: B1 VL with S52K
B13: Y102L IgG (antibody, V domains shown)
VH: B1 VH with Q57S, Y108L
VL: B1 VL
notes: human kappa IgG1; also called Y012L
B14: 1F11/Y102L IgG (antibody, V domains shown)
VH: B1 VH with Q57S, Y108L
VL: B1 VL with S52K
notes: human kappa IgG1
B15: 2C11/3F5 IgG (antibody, name in Kabat numbering, V domains shown)
VH: B1 VH
VL: B1 VL with T94Q
B16: 1F11/2H5/3F5 triple mutant IgG (antibody, name in Kabat numbering, V domains shown)
VH: B1 VH
VL: B1 VL with S52K, T94N
notes: human kappa IgG1
B17: 1F11/2C11/3F5 triple mutant IgG (antibody, name in Kabat numbering, V domains shown)
VH: B1 VH
VL: B1 VL with S52K, T94Q
notes: human kappa IgG1
B18: 2H5/3F5 IgG (antibody, name in Kabat numbering, V domains shown)
VH: B1 VH
VL: B1 VL with T94N
B19: 2H5 IgG (antibody, name in Kabat numbering, V domains shown)
VH: B1 VH with Q57S
VL: B1 VL with T94N
B20: 3F5 IgG (antibody, V domains shown)
VH: B1 VH
VL: B1 VL
B21: 2C11 IgG (antibody, name in Kabat numbering, V domains shown)
VH: B1 VH with Q57S
VL: B1 VL with T94Q
B22: 1F11/3F5 IgG (antibody, V domains shown)
VH: B1 VH
VL: B1 VL with S52K
notes: also called double mutant 1F11/3F5
B23: 1E3 IgG (antibody, V domains shown)
VH: B1 VH with Q57S
VL: B1 VL
notes: also called parental 1E3
B24: 1F11 IgG (antibody, V domains shown)
VH: B1 VH with Q57S
VL: B1 VL with S52K

Target: T1, linear diubiquitin (Boston Biochem) (human, UniProt P0CG48 1-152)
T1 construct: Bought product
Assay: phage IC50 competition ELISA with soluble linear diubiquitin
Description: An initial titer ELISA was done to determine the amount of phage at which a signal of OD₄₅₀=0.5 would be achieved. […] The coated plates were blocked with 200 μL/well of 2.5% milk in PBST for one hour at 25° C. with shaking. Twelve two-fold serial dilutions of the phage were made in 2.5% milk in PBST from OD₂₆₈=4.0 to OD₂₆₈=0.002. After one hour, the blocking buffer was dumped off of the plate and 100 μL/well of each phage dilution was added and incubated at 25° C. for 15 minutes with shaking. The plate was then washed six times with PBST using a plate washer. A 1:5000 dilution of an anti-M13 phage-HRP-conjugated secondary antibody (GE Healthcare) in PBST was used for detection of phage binding. 100 μL/well of the secondary dilution was added and the plate was incubated at 25° C. for 30 minutes with shaking. The plate was then washed 12 times with PBST using a plate washer and twice with PBS manually. Bound secondary antibody was detected using a TMB substrate (KPL) followed by quenching with an equal volume of 1 M phosphoric acid.

B1 was tested. Which IC50 did it give?
Its IC50 is 12 nM and 9 nM and 13 nM.

For B2, which IC50 is on record?
Its IC50 is 23 nM and 16 nM and 19 nM.

Which IC50 does the source give for B3 here?
The IC50 was 14 nM.

How did the IC50 turn out when B4 was run?
Its IC50 is 17 nM.

With B5 as the binder, how does the IC50 read?
The IC50 was 44 nM and 33 nM and 26 nM.

Which IC50 does the source give for B6 here?
The IC50 was 31 nM.

How did the IC50 turn out when B7 was run?
Its IC50 is 20 nM.

How did the IC50 turn out when B8 was run?
The IC50 was 26 nM.

With B9 as the binder, how does the IC50 read?
Its IC50 is 13 nM.

How did the IC50 turn out when B10 was run?
The IC50 was 23 nM.

B11 was tested. Which IC50 did it give?
Its IC50 is 24 nM.

With B12 as the binder, how does the IC50 read?
Its IC50 is 12 nM.

Target: T1, linear diubiquitin (Boston Biochem)
Assay: western blot, 1 ug/mL IgG, LI-COR Odyssey quantification; Ub2 bands seen at 111 (faint), 333 and 1000 ng

How did the “signal of the Ub2 band at 1000 ng linear diUb (number under the arrow)” value (from here on “signal of the Ub2 band”) turn out when B13 was run?
The value was 5.4.

With B14 as the binder, how does the “signal of the Ub2 band” value read?
The value was 5.3.

Target: T2, K63-linked diubiquitin (Boston Biochem) (human, UniProt P0CG48 1-76, isopeptide bond between the C-terminus of one ubiquitin and Lys63 of the other)
T2 construct: Bought product; also called K63 diUb
Assay: western blot, 1 ug/mL IgG, LI-COR Odyssey

Does B15 bind?
Result: no binding (tested: 1000 ng per lane)

Does B16 bind?
Result: no binding (tested: 1000 ng per lane)

Does B17 bind?
Result: no binding (tested: 1000 ng per lane)

Does B18 bind?
Result: no binding (tested: 1000 ng per lane)

Target: T2, K63-linked diubiquitin (Boston Biochem)
Assay: western blot, 1 ug/mL IgG, LI-COR Odyssey
Remark: another data set of the same source
Description: (§1) Gels were transferred at 30 V constant for 1 hour by wet transfer in 10% methanol and 1× NuPAGE transfer buffer (Invitrogen) to 0.2 μm nitrocellulose (Invitrogen). Non-specific binding sites on the membranes were blocked by incubation in 5% milk in PBST for 1 hour at 25° C. with shaking. […] The membranes were washed three times in PBST with shaking. The IgGs were detected by incubating the membrane in a 1:10,000 dilution of a goat anti-human Fc fragment-specific IR Dye 800CW-conjugated secondary antibody (Rockland Immunochemicals) in 5% milk in PBST for 30 minutes at 25° C. with shaking. The membranes were then washed three times in PBST followed by one wash in PBS. The secondary antibody was detected and quantified using the L1-COR Odyssey infrared imaging system (L1-COR Biosciences).

Does B19 bind?
Result: no binding (tested: 1000 ng per lane)

Does B20 bind?
Result: no binding (tested: 1000 ng per lane)

Does B21 bind?
Result: no binding (tested: 1000 ng per lane)

Does B22 bind?
Result: no binding (tested: 1000 ng per lane)

Target: T1, linear diubiquitin (Boston Biochem)
Assay: western blot, 1 ug/mL IgG, LI-COR Odyssey quantification; Ub2 bands seen at 111 (faint), 333 and 1000 ng
Remark: another data set of the same source
Description: as §1

For B15, which “signal of the Ub2 band” value is on record?
The value was 13.1.

With B20 as the binder, how does the “signal of the Ub2 band” value read?
The value was 16.4.

Which “signal of the Ub2 band” value does the source give for B18 here?
The value was 16.7.

Target: T3, K11-linked diubiquitin (Genentech) (human, UniProt P0CG48 1-76, isopeptide bond between the C-terminus of one ubiquitin and Lys11 of the other)
T3 construct: also called K11 diUb
Assay: phage specificity ELISA, 1 ug/mL coated antigen, anti-M13-HRP
Description: (§2) The panel of ubiquitin proteins was immobilized on 96-well Maxisorb immunoplates (NUNC) (see FIGS. 7A and 7B). Plates were coated at 4° C. overnight with 1 μg/mL of each protein in 50 mM sodium carbonate buffer, pH 9.6. The coated plates were blocked with 200 μL/well of 2.5% milk in PBST for one hour at 25° C. with shaking. Six two-fold serial dilutions of phage from OD₂₆₈=1.0 to OD₂₆₈=0.03 were made in 2.5% milk in PBST. After one hour, the blocking buffer was dumped off of the plate and 100 μL of the phage serial dilutions was added. Plates were incubated at 25° C. for one hour with shaking. The plate was then washed six times with PBST using a plate washer. A 1:5,000 dilution of an anti-M13 horseradish peroxidase (HRP)-conjugated secondary antibody (GE Healthcare) in PBST was used for detection of phage binding. […] The plate was then washed six times with PBST using a plate washer and twice manually with PBS. Bound secondary antibody was detected using a TMB substrate (KPL) followed by quenching with an equal volume of 1 M phosphoric acid. The absorbance was read at 450 nm.

Does B1 bind?
Result: no binding (tested: phage OD268 1)

Does B2 bind?
Result: no binding (tested: phage OD268 1)

Does B4 bind?
Result: no binding (tested: phage OD268 1)

Does B5 bind?
Result: no binding (tested: phage OD268 1)

Does B7 bind?
Result: no binding (tested: phage OD268 1)

Target: T4, monoubiquitin (Boston Biochem) (human, UniProt P0CG48 1-76)
T4 construct: Bought product
Assay: as above
Description: as §2

Does B1 bind?
Result: no binding (tested: phage OD268 1)

Does B2 bind?
Result: no binding (tested: phage OD268 1)

Does B4 bind?
Result: no binding (tested: phage OD268 1)

Does B5 bind?
Result: no binding (tested: phage OD268 1)

Does B7 bind?
Result: no binding (tested: phage OD268 1)

Target: T5, K48-linked diubiquitin (Boston Biochem) (human, UniProt P0CG48 1-76, isopeptide bond between the C-terminus of one ubiquitin and Lys48 of the other)
T5 construct: Bought product; also called K48 diUb
Assay: as above
Description: as §2

Does B1 bind?
Result: no binding (tested: phage OD268 1)

Does B2 bind?
Result: no binding (tested: phage OD268 1)

Does B4 bind?
Result: no binding (tested: phage OD268 1)

Does B5 bind?
Result: no binding (tested: phage OD268 1)

Does B7 bind?
Result: no binding (tested: phage OD268 1)

Target: T1, linear diubiquitin (Boston Biochem)
Assay: western blot, 1 ug/mL IgG, LI-COR Odyssey quantification; Ub2 bands seen at 333 (faint) and 1000 ng
Description: as §1

How did the “signal of the Ub2 band” value turn out when B23 was run?
The value was 8.7.

How did the “signal of the Ub2 band” value turn out when B19 was run?
The value was 10.4.

With B21 as the binder, how does the “signal of the Ub2 band” value read?
The value was 10.8.

Which “signal of the Ub2 band” value does the source give for B24 here?
The value was 13.1.
